Experimental data reported in a protein production outcome set (Wang et al. 2014).

Test: label from the status in PepcDB records

Sequence | protein production
MAFCSLEKRHAILDWPQLQLTNGSGRCSGRVEVYYHGQWGRVCDDQWDLREADVVCRQLNCGDALEAPVQARFGDGPGEFLLDEMDCTGTESFLGQCPHAGWHLHNCGSGEDASVICEGNGEELVARPQVLPVADPVPGSRRAHVPRLSLNGADMSPDPTPVIDPDPESSKPSGDWAPVRLSGNHGSCAGRVELFYQGVWGTVCDDLWDLTEANIICRQLGCGRAVSALSEAYFGQGSGKILLDNVHCKGHEEHLEECSHLGWFSHNCDHSEDASVICSDAEYGMATLSDHPLAVMEGAMNPEKSRCGGVITKAPGKIKNPPMNEMHDNITCVWEIRANTSDRIRLAFPSLDLDCTNEYFEILDGPPSSVKSLGKPCRGLHVTFASHSNSMTLVYFRGENNIGKNFMAYYYFEAKEVTTKTPYLITIPTATSKMVTERPQFSKPAQPTHTPSGNVSPLPVPDSGDWPELRLVGGSNRCSGRVEILYQGVWGTVCDDLWDLNEAEVVCRQLECGQAVSSLGEAYFGPGSGDIFLDNLQCSGLEHYLSQCPHSGWSEHNCGHHEDAGVICSDSGAPPPPMPPGPPPTSQDPLTGGSNSCGGVISSLSGSFTSPQYPENYPTDIQCVWEIHVEKNFRIELMIPNLNLEDILGCPYDSVEIFDGPRIPSLSMGKFCAPSAVVFFSSSDILTVVFRSDYMTTNTGFYAFFNAIPQDGKESEERPVLRLAGSSGQCSGRVEILHQGAWGTVCDDLWDLNEAEVVCRQLGCGHAIAAPGSAYFGPGSGNILLDNIQCSGKENHFGQCSSSAWLDHNCGHHEDAGVICSDAEVTPSPTEGSQSCGGVISSLSGSFSSPWYPTNYPTDTECIWEIHVAEKFNIELTIPSLK | failed
MARVVVDAQAARAIGKGAMIVFKKGVVRVEGDIKPGDIVEVYTRGGKFLGKGFANPNSNIMVRIVTKDKDVEINKDLFKRRIKKANEYRKKVLKYTNVYRMVYGEADYLPGLIVDRFNDIASLQISSAGMERFKLDVAEAIMEVEPGIETVFEKNTGRSRRREGLPEIERVLLGKEKYRTIIQEGRAKFIVDMRGQKTGFFLDQRENRLALEKWVQPGDRVLDVFTYTGGFAIHAAIAGADEVIGIDKSPRAIETAKENAKLNGVEDRMKFIVGSAFEEMEKLQKKGEKFDIVVLDPPAFVQHEKDLKAGLRAYFNVNFAGLNLVKDGGILVTCSCSQHVDLQMFKDMIIAAGAKAGKFLKMLEPYRTQAPDHPILMASKDTEYLKCLFLYVEDMR | not failed
MREMQIMSQPEQSRLDLFIDRMVSQRACLEHAIAQTAGLSGPVYELGLGNGRTYHHLRQHVQGREIYVFERAVASHPDSTPPEAQLILGDIRETLPATLERFGATASLVHADLGGHNREKNDRFARLISPLIEPHLAQGGLMVSSDRMYFEGLEELPLPPGAVVGRCFIYRRG | not failed
NWKTRLRMLNHFPKPTFEDIPLLDLALSDEKVPVRRQAIVLLGMIESKEILPYLYKGLRDKSPAVRRTAGDCISDLGYPEALPEMVLLLDDPQKIVRWRAAMFIFDEGNAEQLPALKAHINDNAFEVKLQIEMAISRIENGDEALGSVWKQMAN | failed
SVFPQQTGQLAELQPQDRAGARASWMPMFQRRRRRDTHFPICIFCCGCCHRSKCGMCCKT | failed
MPNTTAKKDYTKYSEKQLFNLIHQLERKIKKMQNDRISFKEKMAKELEKRDQNFKDKIDALNELLQKISQAFDDKRDCCLGHEIPNIETQQAMRDALNGINLTQIDSLDDFTNELKRENSKGFENVCFSV | failed
MEHSSGTKLLLTLSLFFCLISGAEAADSHALDSGDVNLSELKAFDLLCKCETWGIVNTVSLSSTGNYLVAGGFDRNVSLFDSRGTQLWNYKTEDIVYTVSISSDGSRIVAGSNDKKVYFFNREGDLLWSHKTGGNINSVAVSSNGLYVAAGGEDGKVYFMNSAGKLLWSFDSEAAVRSIAISRDGTYVAVGNANNYVYLFDSEGKTIWNRKTGSLINCVSMTPYAYYVAAGGSNYNVYLFDRKGEFSWMNNPGYWVSSVSLTTNGAYLAAGSFDDMIYLFNRTGGKIWDYKAKDDVYAVEISADSSFIAAGSWDDTLYVLNMDGEELWNYNCGGNINSLDVSRDSTTIAVGSDAGAVYLFERNPTAFALLLGDESFLPEETTKETDTSLAEKTIKPIEEETAVTGGVENKVEDAPATSSSVSGNPKTGENPGSEELPTEESSLKLLEKFDSIKFPAALLLGALAGTVFFLKRRLVKYHEKNDENLEDLEEKDIRE | failed
MSFYVVVGAGPVGRETARLLGEEGHDVVLTSRSVGSNALPNVRTVQADATDASELSRICRGADAIFMCAMAAYHRWPTDFFPIIDGTVRAAEAVGAKLIVLGNLYGYGENADSPLRSDLPLDPTSRKGTARTIMWQRAVRAGIPAIEIRSSDYLGHGAISYFSLIALPAIIEGKPTAFIGDLDATHAWAFTKDVARTLVAAALYKGEWGRAFHVPSQYASPRELIQKAAAMLGQEVSGTLSYSVPEIEALGMHEAIEMSYLFEKPLLVDASDTEALLGVKASSLEEMIADTLRDHL | failed
MMNNSEGLKSFQQSLADLPQWVSERLLQQINQLTNYEPVIGIMGKTGVGKSSLCNALFAGDISPVSDVAACTREPLRFRLQVGDRYITLMDLPGVGESGARDTEYAALYREQLPRLDLVLWLIKADDRALTVDEHFYHQVIGEVYRHKVLFVISQSDKAEPTSGGGQLSTAQKQNISRKICLLHELFQPVHPVCAVSVRLQWGLKVMAERMIKCLPREATSPVVSQLHPSFRTTVVREQARSDFGETVGAVLDSISAFPLIPAPVRAVIQAVRTTVVSVARAVWDFFF | failed
MWKDLTEPLPEACAEGLEIRVVKSPEELADYAAVLSANWNPPAETVQRFYTEAAEYALRKNSPALYLVGYAGNRAVCSAEAFIHASVVGIYNISTLEHKRRRGYGGAITLATLHTARNAGCDTAVLQASEDGEPVYRKLGFTDCGRFTEYSL | failed
MKISVPTYPFARERYWISVPEMKTSTVNHILHPLVHRNTSDFTEQRFSSVFTGTEFFLSDHVVQGQKILPGVAYLEMAREAAEKAAGDLDGEQRVVSLKDIVWVRPITIESEPKEIHIGLFPEDNGDISFDIYSSSEHKEEALTIHCQGRAVISDEAETSILNLSSIQTECSLDTVTSEQCYAAFRKIGLDYGEGYQGIEKVYVGKDQLLAKISLPAFLKNDKQHFALHPSLMDSAFHATVGFIVSSVNAAGQAQTLSLPFALQEVDIFSPCPEKIWSYIRYSSDSLEHHHHHH | failed
MAGNAPLQQVQKKWAECQYSTPDGDEKEQCFHRAIAKTSIYLDREPGNPELTVWLAINKASLAGAQGGFGALSLAKEAKSLLEGVIATSPQTLDGSAYTSLGSLYYKVPGWPIGFGDDDKAEEMLKKALEINPKGIDPNYFYGDFLAEEGRDKEAKVYLTRAMQASPRPDRPLADKGRKLEIEATLGRLKLEHHHHHH | not failed
MILVATKPKDSRGSSSDEMMMNDLDEIIFGENSLGHSSSASGNDQKKQKSSKNNELIHL | failed
MARSKVKNLLLLKQIHSAVSQIKKGKLDKALETLDKAETSARQSKSTDALYYILFTRGGILYSAKEYDQALEAYEKALEAGSDLLKTDPENADYQHYMGTTLSNTGNLLKKKSEIDKADEYYSQARKIYFDLIKKDPQNAVYQSYAGENLNNYGELLMESGSLEKACEILREAIEIYEKLYKEKPDNLGYQAELSVALSQLGGCLKHQVPEESGAAKEKLEKALELQESLLDQQPENEKVKEAIALTEERLKGL | failed
MDLEEQKKAVIEKLIREGYIKSKRVIDALLKVPREEFLPEHLKEYAYVDTPLEIGYGQTISAIHMVGMMCELLDLKPGMKVLEIGTGCGYHAAVTAEIVGEDGLVVSIERIPELAEKAERTLRKLGYDNVIVIVGDGTLGYEPLAPYDRIYTTAAGPKIPEPLIRQLKDGGKLLMPVGRYLQRLVLAEKRGDEIIIKDCGPVAFVPLVGKEGFQG | not failed
MAKQIIVTDSTSDLSHEYLKQHNIHVIPLSLTIDGKSYTDQVDISSSEYIDHIENDADVKTSQPPIGRFIETYEQLAQDDVEIISIHLSSGLSGTYNTAVQASHMVDGNITVIDSKSISFGLGYQIKQIVELISQGTSTEEIVKEMTQLRDNLQLFVVIGQLNQLIKGGRISKTKGLIGNIMKIKPIGTLRDGKLELVHNSRTQNSSVQYLKKEITDFVKDHKIKSIGIAHANVKDFVDKIIKSFTESFDFSQFDINVTTPVISTHTGQGAIGLVVLRDTLN | failed
MRRPPVVGVLLAAGRGSRFDPDGTVNKLLAALPDGTPVAVQAARHLRAVLDDVVAVVPAAGTHGAEVERLAALLAEAGCEVLRCARAARGMGASLAAGVAARPHAGGWIIALADMPWLAPHTIARVAQALDARHCVAPFHQGRRGHPIGFGADYFAGLAALDGDEGARALIDPARLIRLDVGDAGTLRDVDTPADVCGA | failed
MTLAPPPMPPSDAPAAESAGATLRLVIADALVVILTFIVMFLGVGQLSAEAGLSAVQTAVMTLLTVAAPAQAAAMQIMTSDGATSGVWVAAMVAVIIVNLRFMVMVASILGRLPQAGFLRGTAAVGLVSASSFAIILPRLMSAPPARPLLYCALVGVSCSISAVIGALLGHQLAASVPALVGAALGAMIPIYFATLIARQGKHKALIANALAGAVLVPLAAPLLGSLSLLIVPLGISALSLMIGKGTPANG | failed
MTIYTLSHGSLKLDVSDQGGVIEGFWRDTTPLLRPGKKSGVATDASCFPLVPFANRVSGNRFVWQGREYQLQPNVEWDAHYLHGDGWLGEWQCVSHSDDSLCLVYEHRSGVYHYRVSQAFHLTADTLTVTLSVTNQGAETLPFGTGWHPYFPLSPQTRIQAQASGYWLEREQWLAGEFCEQLPQELDFNQPAPLPRQWVNNGFAGWNGQARIEQPQEGYAIIMETTPPAPCYFIFVSDPAFDKGYAFDFFCLEPMSHAPDDHHRPEGGDLIALAPGESTTSEMSLRVEWL | not failed
MSLDKKLMPVPDGHPDVFDREWPLRVGDIDRAGRLRLDAACRHIQDIGQDQLREMGFEETHPLWIVRRTMVDLIRPIEFGDMLRCRRWCSGTSNRWCEMRVRVDGRKGGLIESEAFWIHVNRETEMPARIADDFLAGLHRTTSVDRLRWKGYLKPGSRDDASEIHEFPVRVTDIDLFDHMNNAVYWSVIEDYLASHAELLRGPLRVTIEHEAPVALGDKLEIISHVHPAGSTEIFGPGLVDRAVTTLTYVVGDEPKAVASLFNL | failed
MVDVLWDEIQNLELGQDYPTLFIPNEAYVMVEDRNRLSLIARPLLPRVQNFNAVINALPRAWGLTAHVHGRILDATYVQLLFQTEIYLLSVQRREVWLFNNWFVASQRWEAAPSLNFVTTIDLWVQMRGIPILYVFEKTELEIAQELGEIISLDFHDATSTQIAYIRVRVRFGITDRLRFFQRITFESGETALIRFQYERLRRIYSCFRFTHNLNYYPYRQRFQSIDRERAVFRDSVLRSSFNSQSQMTDSSLQVPLHPPPRVPSSGDAITSGIMRVFEVGESSRGVQDGESHNNMNLGESSKRKNLVILQRDKESRQHKQQETEQRMGGILKPPKKR | not failed
MNNIKRFFRYISKNAKYIDYPLVVTYLLLCLIGLVMVYSASMVAATKGSLTGGISVPGTYFYTRQLMYVIMSLVIVFFMAFFMNVKLLETIRFQKWMMIGIIILLAATLVVGSNINGSKSWINLGFMNLQASELLKIAIILYIPYMIEKKRPKVFKQPKLMTSPIILAGLCIALVLLQRDVGQTLLIMIIFVSILFYAGIGVQKSIKYGLLIIVGVVIIGSLFLIIGLVPDYLTARFSTLTNPFSQESGTGYHISNSLIAIGNGGLLGRGLGNSIMKLGYLPEPHTDFIFSIICEELGLVGGLVVICLLFFIVYRAFELANKTNSYFYKLVCVGVASYIGSQTFVNLGGISGTIPLTGVPLPFISFGGSSMISLSIALGLLLITGKQIRIEAYRKKQANKKKTHIGMTRRY | failed
